For three molecules, Kd and Fold diff results are on record in patent publication US20220332804A1 (CSL INNOVATION, published 2022).

As a reminder, the Kd is the free concentration of one partner at which half of the binding sites on the other are occupied at equilibrium, for simple one-to-one binding.

For test [1], the target named is T1, human complement C2 (human, UniProt P06681 21-752).
T1 construct: Recombinant full-length human C2 with C-terminal 8x His tag, purified from Expi293F supernatant; also called human C2; huC2
T1 sequence: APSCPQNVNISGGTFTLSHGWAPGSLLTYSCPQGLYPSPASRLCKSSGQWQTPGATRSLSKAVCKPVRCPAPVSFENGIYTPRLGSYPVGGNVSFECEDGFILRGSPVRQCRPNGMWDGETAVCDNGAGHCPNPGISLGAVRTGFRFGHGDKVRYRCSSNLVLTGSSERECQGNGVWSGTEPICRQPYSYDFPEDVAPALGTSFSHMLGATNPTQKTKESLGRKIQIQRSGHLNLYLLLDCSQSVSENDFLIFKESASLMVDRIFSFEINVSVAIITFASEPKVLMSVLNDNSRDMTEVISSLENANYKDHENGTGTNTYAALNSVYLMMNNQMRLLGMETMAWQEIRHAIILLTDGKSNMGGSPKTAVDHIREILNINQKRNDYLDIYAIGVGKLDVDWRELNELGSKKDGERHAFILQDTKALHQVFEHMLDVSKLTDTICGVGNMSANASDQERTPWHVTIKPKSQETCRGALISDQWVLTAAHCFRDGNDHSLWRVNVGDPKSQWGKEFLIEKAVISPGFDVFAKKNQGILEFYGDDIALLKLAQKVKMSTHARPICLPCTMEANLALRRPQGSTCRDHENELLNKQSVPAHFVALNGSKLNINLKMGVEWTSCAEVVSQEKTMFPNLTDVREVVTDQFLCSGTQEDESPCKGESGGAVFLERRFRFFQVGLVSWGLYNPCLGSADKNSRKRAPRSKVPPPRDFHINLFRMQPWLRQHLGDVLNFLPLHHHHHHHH
Description: SPR, mAb captured, C2 analyte, MHAs buffer, pH 5.8, steady state. Background: In SPR one partner is held on a chip, and binding of the other changes the refractive index at the surface.
Description: Surface plasmon resonance (SPR, Biacore) was used for all binding affinity analyses. In brief, goat anti-human IgG was directly immobilised onto the carboxymethyl dextran surface of CM5 sensorchips to approximately 12,000 RU using standard NHS/EDC chemistry at pH 5. The immobilised antibody surface was pre-conditioned with ten injections of polyclonal human IgG (Privigen 60 s) prepared at 1 μg/mL. Ligands (anti-C2 mAbs) were captured at the beginning of each cycle as described below. An adjacent spot or flow cell in which only Polyclonal IgG was capture was used as a reference surface. The goat anti-human IgG Fc antibody surface was regenerate in 100 mM H3PO4, injected for 45 seconds at the end of each cycle. Experiments were performed at 37° C. and the flow rate of each experiment was kept constant at 30 μL/min.
This buffer contains ammonium sulfate instead of sodium chloride.

Test [2] addresses T1, human complement C2. Description: SPR, mAb captured, huC2 analyte, pH 7.3.
For a further test, the target named is T2, human C2 R519A (human, UniProt P06681 21-752).
T2 sequence: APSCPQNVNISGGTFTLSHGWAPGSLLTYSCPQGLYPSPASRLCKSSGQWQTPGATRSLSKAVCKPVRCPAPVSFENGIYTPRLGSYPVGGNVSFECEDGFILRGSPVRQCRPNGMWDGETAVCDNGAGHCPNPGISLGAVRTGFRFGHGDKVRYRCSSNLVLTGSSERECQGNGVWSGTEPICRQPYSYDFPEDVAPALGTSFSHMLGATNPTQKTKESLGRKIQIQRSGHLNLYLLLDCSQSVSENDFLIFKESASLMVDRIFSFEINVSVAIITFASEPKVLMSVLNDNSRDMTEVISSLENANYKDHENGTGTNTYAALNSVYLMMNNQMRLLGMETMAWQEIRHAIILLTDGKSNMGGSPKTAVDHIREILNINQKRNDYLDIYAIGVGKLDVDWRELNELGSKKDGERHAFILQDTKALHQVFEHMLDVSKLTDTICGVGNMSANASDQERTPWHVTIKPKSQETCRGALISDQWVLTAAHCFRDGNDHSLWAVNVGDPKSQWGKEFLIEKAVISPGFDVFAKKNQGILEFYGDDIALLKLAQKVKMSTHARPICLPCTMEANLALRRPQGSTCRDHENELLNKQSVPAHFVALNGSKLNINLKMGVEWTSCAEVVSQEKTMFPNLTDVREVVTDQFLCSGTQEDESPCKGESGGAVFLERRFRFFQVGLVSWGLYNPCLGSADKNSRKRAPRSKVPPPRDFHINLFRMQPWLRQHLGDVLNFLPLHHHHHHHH
Description: SPR, KD relative to WT C2.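 Note: biacore SPR at 37 °C, anti-C2 mAbs captured on anti-human IgG chips with alanine or serine point mutants of C2 as analyte, KD from 1:1 fit compared with wild-type C2.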

A further test deals with T3, human C2 L271A (human, UniProt P06681 21-752).
T3 sequence: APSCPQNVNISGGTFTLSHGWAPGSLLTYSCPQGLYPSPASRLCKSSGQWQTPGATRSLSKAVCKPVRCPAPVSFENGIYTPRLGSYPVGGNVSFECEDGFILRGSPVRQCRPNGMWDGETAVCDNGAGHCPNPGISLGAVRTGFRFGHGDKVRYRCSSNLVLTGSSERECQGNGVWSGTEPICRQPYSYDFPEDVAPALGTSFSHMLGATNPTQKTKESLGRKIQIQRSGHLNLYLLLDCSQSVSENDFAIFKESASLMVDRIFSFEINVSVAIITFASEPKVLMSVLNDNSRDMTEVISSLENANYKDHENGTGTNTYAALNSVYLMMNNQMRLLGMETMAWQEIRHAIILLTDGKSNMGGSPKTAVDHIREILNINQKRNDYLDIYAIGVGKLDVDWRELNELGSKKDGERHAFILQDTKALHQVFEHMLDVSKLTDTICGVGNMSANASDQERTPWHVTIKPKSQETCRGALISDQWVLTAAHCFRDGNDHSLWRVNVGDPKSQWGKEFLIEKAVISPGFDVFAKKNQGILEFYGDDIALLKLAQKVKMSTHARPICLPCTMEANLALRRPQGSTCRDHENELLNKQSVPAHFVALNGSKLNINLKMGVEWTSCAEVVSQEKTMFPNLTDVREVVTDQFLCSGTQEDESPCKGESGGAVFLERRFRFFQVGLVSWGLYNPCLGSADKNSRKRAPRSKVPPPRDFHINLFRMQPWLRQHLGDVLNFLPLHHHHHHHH
Description: SPR, KD relative to WT C2.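 Note: biacore SPR at 37 °C, anti-C2 mAbs captured on anti-human IgG chips with alanine or serine point mutants of C2 as analyte, KD from 1:1 fit compared with wild-type C2.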

B1: RF16-214 (antibody, V domains shown)
VH: EVQLLESGGGLVQPGGSLRLSCAASGFTFSWYQMMWVRQAPGKGLEWVSRIYPSGGGTAYADSVKGRFTISRDNSKNTLYLQMNSLRAEDTAVYYCARDAGYGDNWGQGTLVTVSS
VL: QSALTQPPSVSVSPGQTASITCSGDKLGEKYASWYQQKAGQSPVMVIYQDRKRPSGIPERFSGSNSGNTATLTISGTQAMDEADYYCQAWDTRAVVFGGGTKLTVLG
In the case of B1, the Kd with human complement C2 [1] was 4.67 µM.

B2: RF16-226 (antibody)
heavy: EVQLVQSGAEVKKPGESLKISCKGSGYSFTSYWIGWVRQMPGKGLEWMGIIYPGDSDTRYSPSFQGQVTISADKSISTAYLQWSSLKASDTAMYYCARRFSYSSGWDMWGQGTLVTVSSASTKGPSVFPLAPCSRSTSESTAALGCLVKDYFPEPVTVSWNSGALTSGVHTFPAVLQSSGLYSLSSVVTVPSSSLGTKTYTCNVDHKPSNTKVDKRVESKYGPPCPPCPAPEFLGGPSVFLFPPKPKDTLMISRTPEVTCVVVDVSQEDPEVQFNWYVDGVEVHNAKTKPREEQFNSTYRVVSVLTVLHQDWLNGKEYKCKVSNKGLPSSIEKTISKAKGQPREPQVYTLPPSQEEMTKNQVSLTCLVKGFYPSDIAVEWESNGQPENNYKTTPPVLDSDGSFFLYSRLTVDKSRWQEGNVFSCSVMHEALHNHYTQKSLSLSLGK
light: SYELTQPPSVSVSPGQTARITCSGDALTSKYVAWYQQKSGLAPLLVIYEDTRRPSGIPAKFSGSSSGSVATLTISGAHGDDEADYYCYSTDASGHQRVFGGGTKLTVLSQPKAAPSVTLFPPSSEELQANKATLVCLISDFYPGAVTVAWKADGSPVKAGVETTKPSKQSNNKYAASSYLSLTPEQWKSHRSYSCQVTHEGSTVEKTVAPTECS
As for B2, the dissociation constant Kd in the test with human complement C2 [2] was roughly 0.01 µM; with human complement C2 [1], 5.51 µM.

B3: RF16-242 (antibody, human IgG4 S228P, lambda, V domains shown)
VH: EVQLLQSGAEVKKPGESLKISCKGSGYSFTSYWIGWVRQMPGKGLEWMGIIYPGDSDTRYSPSFQGQVTISADKSISTAYLQWSSLKASDTAMYYCARRGHYGDYFDYWGQGTLVTVSS
VL: SYELTQPPSVSVSPGQTARITCSGDALPKKYAYWYHQKSGQAPVLVIYEDRRRPSEIPERFSGSSSGTMATLTITGAQVEDEGVYFCYSRDRAGNQRVFGGGTQLTVLG
notes: pH-dependent anti-C2 antibody from a phage display library
As to B3, the Fold diff with human C2 R519A and in the test with human C2 L271A was 1 fold throughout.
